Data as given in the RNAGym collection of RNA variant scans (doi:10.1073/pnas.2313332121).
Variants at the floor of the assay were thinned out.

B1: TPR 5TU (parent)
chain: GGAUCUUCUCGAUCUAACAAAAAAGACAAAUCUGCCACAAAGCUUGAGAGCAUCUUCGGAUGCAGAGGCGGCAGCCUUCGGUGGCGCGAUAGCGCCAACGUUCUCAACUAUGACACGCAAAACGCGUGCUCCGUUGAAUGGAGUUUAUCAUG

Variants of: B1
Test: polymerase ribozyme fitness, log enrichment relative to wild type (log ratio); higher = more active; in vitro selection for triplet polymerase activity
Procedure, shortened: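 Libraries of mutants in each subunit of a heterodimeric triplet polymerase ribozyme were generated by PCR and transcribed. In triplicate, each went through one in vitro selection round: annealing with biotinylated primer, partner subunit and triplets; frozen incubation at −7 °C; gel excision of extended constructs; streptavidin-bead capture; RT-PCR. Fitness, taken from Illumina sequencing of input and output libraries, is the logarithm of a genotype's enrichment over wild-type enrichment, averaged across replicates with inverse-variance weights. The logarithm is base 2, and genotypes needed ≥10 input reads and ≥1 read per output to be kept.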

Variant	polymerase ribozyme fitness (log ratio)
U55A A107G	-3.7
U55A G58U G84A C103U A120C	-0.0961
U55A A64C C85U U146G	≤ -4.2
U55A A66U G74A C75A C79G G88C C95G A137U	≤ -4.2
U55A C79G G81A	-4.18
U55A C114A	-3.44
U55A C114U	-2.21
U55A A89U U102G	≤ -4.2
U55A A113C	-2.92
U55A G126U	-0.31
U55A A60U C118G A119C	-0.427
U55A C72U C79A A107G	≤ -4.2
U55A G84U	-2.28
U55A G84A	-1.01
U55A G84A G117U	-0.634
U55A G58A C85A C131U	0.931
U55A A106U A107U	-4.11
U55A G62A C69G G71A	≤ -4.2
U55A C57A A60G A73U C132U U145G	-2.26
U55A G71A U77C C95U A113C C149G	≤ -4.2
U55A A66C U77A C87A	≤ -4.2
U55A C85A C105U U134A	≤ -4.2
U55A C129A	-2.11
U55A G86A C149U A150U	-1.65

Variant	polymerase ribozyme fitness (log ratio)
U55A C125A	-0.912
U55A C63G A121U	-0.282
U55A G62C G81A	-3.98
U55A A147C	-1.3
U55A C57U C85G G94C C99G C149G	≤ -4.2
U55A G94C U148G	≤ -4.2
U55A G88C G133U U145C	≤ -4.2
U55A G68A	-3.21
U55A C96G A115U A119G	-2.42
U55A C85U A122G A142G U145G	-2.39
U55A C69A U77C A89G	≤ -4.2
U55A C79A A121C	≤ -4.2
U55A C57U G84A G141C	-0.559
U55A A73C C87U G92A	-2.04
U55A U61A A91U A97C A142G	≤ -4.2
U55A A91U C96A C125G A142G	≤ -4.2
U55A G59A U148G	-2.52
U55A C87U U146A	-1.36
U55A C105G G141U	-2.82
U55A A73G A89G G136A	-0.934
U55A A142U	-0.464
U55A C63A G83C G84U C125G U135A	≤ -4.2
U55A U56A G59A	0.199
U55A C116G	0.374

Variant	polymerase ribozyme fitness (log ratio)
U55A G84A G86A C93U C105U	-1.1
U55A G58A A89C A120U U134C	0.161
U55A C57U C85U A91G G141U	-1.7
U55A G59A	1.69
U55A G124U U139G	0.0477
U55A G86U A91U G133U A147U	≤ -4.2
U55A A66G G92U A119C	≤ -4.2
U55A G81C C118G G141A U146A	-2.94
U55A C57U A66C G94A A106G G128U G140A	≤ -4.2
U55A C93U	-1.68
U55A G59U A60G G94A	-1.02
U55A A138U	-3.9
U55A A138G	-2.51
U55A C75U	0.238
U55A G84U G128U U134C	-4.17
U55A G92U U146C	-0.69
U55A G62A C87U C103U	-1.44
U55A A60G C69U G92U A147U	-0.244
U55A A115U	-1.89
U55A G117A	-0.438
U55A G94C	-0.443
U55A A60U G84U C116G A119U	-2.63
U55A C57U	0.643
U55A C57A	0.142

Variant	polymerase ribozyme fitness (log ratio)
U55A A122G	-0.237
U55A C63A	-0.431
U55A C76U C93U C95U G143A	-2.72
U55A G86A C93A U104C A113U G126A	≤ -4.2
U55A G58C	-0.661
U55A G100A	≤ -4.2
U55A A150C	-3.6
U55A A73U C75U C93U G100A U139A U144G	≤ -4.2
U55A C72A C99U G126A U139C	≤ -4.2
U55A A106C C125G	-1.63
U55A U56A G80U U111A	≤ -4.2
U55A C108G	≤ -4.2
U55A A121U	-0.372
U55A C93G G141C	-3.82
U55A G67A U127A	≤ -4.2
U55A U56A	-0.654
U55A G67A C85U U90A A98U	≤ -4.2
U55A G84U G152C	-3.48
U55A C63G C76U U78G G92C G136U G141C	≤ -4.2
U55A G140U	-2.9
U55A G140A	-4
U55A G83U	-1.69
U55A C69A A97U U102C C149A	≤ -4.2
U55A C87U U90C A122U	≤ -4.2

Variant	polymerase ribozyme fitness (log ratio)
U55A C96A G136C	-3.78
U55A G80A C85A	-1.39
U55A C76G A138C	≤ -4.2
U55A A119G U139G	0.219
U55A A60G A137C	-3
U55A G86U U145G	-1.41
U55A U61A	-3.16
U55A A60C	-4.18
U55A A60G	0.676
U55A A73G	-0.446
U55A G84A A119C G133U G143A	-4.03
U55A C69U C93U	-3.95
U55A A115U G133U	≤ -4.2
U55A G59C G94U A107C	≤ -4.2
U55A C93U A115U G143U	≤ -4.2
U55A G136A	-0.833
U55A G71C A106U C125A	≤ -4.2
U55A C132A A137G G143A U146G	≤ -4.2
U55A G68C A91G A107C	≤ -4.2
U55A A64C	≤ -4.2
U55A C87G C149G	≤ -4.2
U55A C72U C76U U78C G84A	-2.57
U55A C57A C95U	-0.372
U55A U61A A97C C103A C125A	≤ -4.2

Variant	polymerase ribozyme fitness (log ratio)
U55A C69G	-3.05
U55A A91C	≤ -4.2
U55A C69U G136A	-3.04
U55A U61G G86U	≤ -4.2
U55A G92U G124U G141C	-1.14
U55A A91G U134A	-4.01
U55A A73U C93A A122U	-3.55
U55A C93U C95U C96U	-3
U55A C85A A119U U134A A142C	≤ -4.2
U55A U56C G58A G92C A119U U145G	-2.87
U55A G92U	-1.03
U55A A113U A121G U139G G141U U144A	≤ -4.2
U55A G143C	-2.99
U55A U61A C96A C116G	-2.17
U55A C72U G83A	-0.82
U55A C69U G94C	-3.36
U55A G81A C87U U135A U146A	-2.11
U55A U61A C79A G83A U90G G143A	≤ -4.2
U55A G128A	-4.18
U55A A115G G124U	-0.932
U55A C76A C114U	-3.91
U55A G80A	-1.65
U55A A97U	-0.916
U55A A97C	0.466

Variant	polymerase ribozyme fitness (log ratio)
U55A C103G	-2.22
U55A C103U	-0.726
U55A U56G C75G	-4.19
U55A U61A C93U C103A	≤ -4.2
U55A G81A C93U C105A C118U	-3.74
U55A G124U	-2
U55A G124A	-0.272
U55A G58U G83C G124C C132G	≤ -4.2
U55A G74C C118U	≤ -4.2
U55A C75G U77G A107U	≤ -4.2
U55A C72A A119U	≤ -4.2
U55A G84U A106C U144C U146C	-4.16
U55A C76U A121C	-0.181
U55A G94U C108A	≤ -4.2
U55A C85A G133C	-3.05
U55A C57U C87G C125A	≤ -4.2
U55A G141A	-0.587
U55A C87U	-1.1
U55A C87A	≤ -4.2
U55A U56A A106C	-1.06
U55A C57G C87G C93U U104G	≤ -4.2
U55A A60G C76G C87G C96U U139A G140C	≤ -4.2
U55A G70A C123G	-3.3
